Results taken from US20090297479A1 (published 2009).

T1: DC-HIL, mouse, endogenous on APC / dendritic cells (mouse, UniProt Q99P91 23-574)
T1 sequence (looked up): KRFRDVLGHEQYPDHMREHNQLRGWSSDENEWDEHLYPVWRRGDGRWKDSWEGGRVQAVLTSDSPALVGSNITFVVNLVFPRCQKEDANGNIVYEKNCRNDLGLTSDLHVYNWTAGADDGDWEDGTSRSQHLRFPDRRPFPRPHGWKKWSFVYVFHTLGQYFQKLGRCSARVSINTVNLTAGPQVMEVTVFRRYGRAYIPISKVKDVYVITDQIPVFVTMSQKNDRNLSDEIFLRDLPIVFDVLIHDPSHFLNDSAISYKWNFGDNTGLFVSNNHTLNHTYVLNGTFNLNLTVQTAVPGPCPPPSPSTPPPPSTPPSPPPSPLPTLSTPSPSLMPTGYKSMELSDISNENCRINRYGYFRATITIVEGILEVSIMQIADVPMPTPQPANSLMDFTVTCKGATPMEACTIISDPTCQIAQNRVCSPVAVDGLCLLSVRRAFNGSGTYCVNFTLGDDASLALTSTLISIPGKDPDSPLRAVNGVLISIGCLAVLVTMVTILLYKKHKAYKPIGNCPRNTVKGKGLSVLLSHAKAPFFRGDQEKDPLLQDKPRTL

T2: DC-HIL-Fc RAA mutant (replacement of RGD sequence with RAA) (mouse; human, UniProt Q99P91 23-502)
T2 construct: extracellular domain; Positions 65 and 66 are derived from the printed position of RGD (aa 64-66); not shown: Fc of human IgG1
T2 sequence (looked up): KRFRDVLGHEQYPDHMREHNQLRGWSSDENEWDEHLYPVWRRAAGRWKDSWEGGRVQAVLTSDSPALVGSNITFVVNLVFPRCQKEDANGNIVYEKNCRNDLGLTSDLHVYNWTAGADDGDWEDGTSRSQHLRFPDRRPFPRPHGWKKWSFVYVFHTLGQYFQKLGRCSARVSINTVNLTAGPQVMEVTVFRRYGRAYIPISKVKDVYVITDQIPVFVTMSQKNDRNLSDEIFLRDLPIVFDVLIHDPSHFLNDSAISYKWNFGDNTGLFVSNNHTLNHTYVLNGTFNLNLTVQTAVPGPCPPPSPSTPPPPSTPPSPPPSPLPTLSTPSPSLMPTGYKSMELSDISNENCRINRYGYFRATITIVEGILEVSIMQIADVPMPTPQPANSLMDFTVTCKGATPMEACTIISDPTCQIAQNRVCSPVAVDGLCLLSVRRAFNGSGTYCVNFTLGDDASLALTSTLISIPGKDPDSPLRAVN

B1: SD4-Fc (extracellular domain of SD-4 fused to the Fc portion of human IgG1) (Fc fusion, UniProt O35988 24-145, looked up, not shown: a dimerising Fc or GST)
chain: ESIRETEVIDPQDLLEGRYFSGALPDDEDAGGSDDFELSGSGDLDDTEEPRPFPEVIEPLVPLDNHIPENAQPGIRVPSEPKELEENEVIPKRAPSDVGDDMSNKVSMSSTAQGSNIFERTE
B2: syndecan-4 (SD-4), mouse, endogenous on T-cells (receptor, UniProt O35988 24-198, looked up)
chain: ESIRETEVIDPQDLLEGRYFSGALPDDEDAGGSDDFELSGSGDLDDTEEPRPFPEVIEPLVPLDNHIPENAQPGIRVPSEPKELEENEVIPKRAPSDVGDDMSNKVSMSSTAQGSNIFERTEVLAALIVGGVVGILFAVFLILLLVYRMKKKDEGSYDLGKKPIYKKAPTNEFYA
modifications: heparin/heparan sulfate chains (binding of DC-HIL is blocked by heparin)
notes: whole, on cells

Tests used:
[1] = target: T1, DC-HIL, mouse, endogenous on APC / …; assay: cell-based or functional assay
recombinant Fc alone = target: T3, recombinant Fc alone (human, UniProt P01857-1 99-330 = IgG part, limits assumed); assay: FACS on T-cells (ligand on activated T-cells later identified as SD-4)
T3 construct: domain: Fc portion

[2] = target: T2, DC-HIL-Fc RAA mutant (replacement of …); assay: FACS, 10 µg/mL on activated CD4+ T-cells (ligand later identified as SD-4)
Experimental: Splenic CD3⁺ T-cells (1×10⁶) were activated by immobilized anti-CD3 Ab (1 or 3 μg/mL) or concanavalin A (10 μg/mL; Sigma, St Louis, Mo.) for 3 days. Freshly isolated and activated CD3⁺ T-cells were then treated with 5 μg/mL Fc blocker (BD Pharmingen, San Diego, Calif.) on ice for 30 minutes to block Fc-binding activity of Fc receptors on T-cells and incubated with 5 μg/mL PE-anti-CD3 Ab (BD Pharmingen) and 10 μg/mL DC-HIL-Fc or control human IgG (hIgG) plus 5 μg/mL FITC-anti-human IgG (both from Jackson ImmunoResearch, West Grove, Pa.). In some experiments, activated and Fc-blocked CD3⁺ T-cells were doubly-stained with 5 μg/mL FITC-labeled anti-CD4 or anti-CD8 Ab (BD Pharmingen) and Fc proteins/PE-anti-human IgG (BD Pharmingen). The treated cells were also stained with anti-CD69 Ab or isotypic control IgG to evaluate activation levels. After staining, binding of Fc proteins to T-cells and expression of marker molecules were analyzed by fluorescence-activated cell sorting (FACS).

| Binder | T-cell activation in the mixed lymphocyte reaction (3H-thymidine) [1] [fold] | binding result (recombinant Fc alone) | binding result [2] |
| --- | --- | --- | --- |
| B1 | 2 | – | – |
| B2 | – | no binding | binds |
